Assay results reported in paper PMC4125734 (Molecular & Cellular Proteomics : MCP, 2014).
Values joined by “and” are separate entries in the source; they are usually repeats but may differ in a detail not shown here. Equal entries are not always repeated. Where two headings read alike, the source gives them in different places.

Key:
14-3-3γ [1] = biological target: 14-3-3γ (UniProt P61981); experiment: negative-stain electron microscopy
14-3-3γ [2] = biological target: 14-3-3γ (UniProt P61981); experiment: negative-stain electron microscopy; remark: listed apart in the source
14-3-3γ [3] = biological target: 14-3-3γ (UniProt P61981); experiment: native MS
14-3-3γ [4] = biological target: 14-3-3γ (UniProt P61981); experiment: SPR
14-3-3γ [5] = biological target: 14-3-3γ (UniProt P61981); experiment: native MS; remark: listed apart in the source
14-3-3γ [6] = biological target: 14-3-3γ (UniProt P61981); experiment: native MS; remark: listed apart in the source
GST-14-3-3γ [7] = biological target: GST-14-3-3γ (UniProt P61981); experiment: SPR
GST-14-3-3γ [8] = biological target: GST-14-3-3γ (UniProt P61981); experiment: SPR; remark: listed apart in the source
GST-14-3-3γ [9] = biological target: GST-14-3-3γ (UniProt P61981); experiment: SPR; remark: listed apart in the source
native MS = biological target: the molecule itself; experiment: native MS

| Molecule | stoichiometry N (14-3-3γ dimers per TH tetramer) (14-3-3γ [1]) | stoichiometry N (14-3-3γ dimers per TH tetramer) (14-3-3γ [2]) | stoichiometry N (14-3-3γ dimers per TH tetramer) (14-3-3γ [3]) | dissociation rate constant of the smaller, rapidly dissociating population (14-3-3γ [4]) | kon (14-3-3γ [4]) | stoichiometry N (14-3-3γ dimers per TH tetramer) (14-3-3γ [5]) | stoichiometry N (14-3-3γ dimers per TH tetramer) (14-3-3γ [6]) | kon (GST-14-3-3γ [7]) | kon (GST-14-3-3γ [8]) | koff (GST-14-3-3γ [9]) | kon (GST-14-3-3γ [9]) | Kd (14-3-3γ [4]) | koff (14-3-3γ [4]) | stoichiometry N (native MS) |
| --- | --- | --- | --- | --- | --- | --- | --- | --- | --- | --- | --- | --- | --- | --- |
| human tyrosine hydroxylase isoform 1 phosphorylated on Ser19 (TH-pS19), full stoichiometry (from UniProt P07101-3 1-497) (enzyme) | 2 | 1 | 2 | 0.018 s⁻¹ | 144000 M⁻¹ s⁻¹ | 2 | 1 |  |  |  |  |  |  |  |
| human tyrosine hydroxylase isoform 1 phosphorylated on Ser19 to low stoichiometry (TH-pS19L) (from UniProt P07101-3 1-497) (enzyme) |  |  | 1 and 2 | 0.019 s⁻¹ | 780000 M⁻¹ s⁻¹ |  |  | 1.2e+06 M⁻¹ s⁻¹ | 1.8e+06 M⁻¹ s⁻¹ | 0.00063 to 0.00069 s⁻¹ | 2.4e+06 M⁻¹ s⁻¹ | 0.57 nM | 0.00045 to 0.00051 s⁻¹ |  |
| human tyrosine hydroxylase isoform 1 phosphorylated on both Ser19 and Ser40 (TH-pS19pS40) (from UniProt P07101-3 1-497) (enzyme) |  |  | 2 | 0.018 s⁻¹ | 159000 M⁻¹ s⁻¹ |  |  |  |  |  |  | 2.1 nM | 0.00036 s⁻¹ |  |
| 14-3-3γ (natural protein) VDREQLVQKARLAEQAERYDDMAAAMKNVTELNEPLSNEERNLLSVAYKNVVGARRSSWRVISSIEQKTSADGNEKKIEMVRAYREKIEKELEAVCQDVLSLLDNYLIKNCSETQYESKVFYLKMKGDYYRYLAEVATGEKRATVVESSEKAYSEAHEISKEHMQPTHPIRLGLALNYSVFYYEIQNAPEQACHLAKTAFDDAIAELDTLNEDSYKDSTLIMQLLRDNLTLWTSDQQDDDGGEGNN |  |  |  |  |  |  |  |  |  |  |  |  |  | 2 |
